# Reference: PMC10083269, “Basic characterization of antibodies targeting receptors of the tumor necrosis factor receptor superfamily” (Frontiers in Immunology, 2023)
# T1: TNFR2(ed)-CRD1-2-GpL (Homo sapiens, point mutant)
# T1 construct: TNFR2, CRD1-CRD2 of the ectodomain; also called GpL-tagged deletion mutant of the TNFR2 ectodomain lacking the stalk region + CRDs 3 and 4; source: HEK293T, transient transfection (PEI); not shown: GpL (Gaussia princeps luciferase), C-terminal, kept
# T1 chain: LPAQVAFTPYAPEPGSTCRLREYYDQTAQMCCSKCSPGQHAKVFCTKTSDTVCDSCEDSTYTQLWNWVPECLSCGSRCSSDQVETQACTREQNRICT
# T2: TNFR2(ed)-CRD1-GpL (Homo sapiens, point mutant)
# T2 construct: TNFR2, CRD1 of the ectodomain; also called GpL fusion protein of the TNFR2 CRD1 alone; source: HEK293T, transient transfection (PEI); not shown: GpL (Gaussia princeps luciferase), C-terminal, kept
# T2 chain: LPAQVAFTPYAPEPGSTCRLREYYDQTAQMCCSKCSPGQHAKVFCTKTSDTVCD
# T3: TNFR2(ed)-CRD1-4-GpL (Homo sapiens, point mutant)
# T3 construct: TNFR2, CRD1-CRD4 of the ectodomain (stalk region lacking); also called GpL-tagged deletion mutant of the TNFR2 ectodomain lacking the stalk region; source: HEK293T, transient transfection (PEI); not shown: GpL (Gaussia princeps luciferase), C-terminal, kept
# T3 chain: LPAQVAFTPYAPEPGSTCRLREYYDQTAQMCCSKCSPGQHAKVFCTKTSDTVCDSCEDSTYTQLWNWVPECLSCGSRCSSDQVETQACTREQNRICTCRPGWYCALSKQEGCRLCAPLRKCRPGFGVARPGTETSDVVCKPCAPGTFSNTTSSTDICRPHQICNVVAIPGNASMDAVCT
# T4: TNFR2(ed)-CRD1-3-GpL (Homo sapiens, point mutant)
# T4 construct: TNFR2, CRD1-CRD3 of the ectodomain; also called GpL-tagged deletion mutant of the TNFR2 ectodomain lacking the stalk region + CRD4; source: HEK293T, transient transfection (PEI); not shown: GpL (Gaussia princeps luciferase), C-terminal, kept
# T4 chain: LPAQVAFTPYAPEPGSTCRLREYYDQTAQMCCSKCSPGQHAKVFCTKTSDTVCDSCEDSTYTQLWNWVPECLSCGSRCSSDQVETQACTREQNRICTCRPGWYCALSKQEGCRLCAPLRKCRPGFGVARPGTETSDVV
# How the values were obtained:
# [1] = molecular target: T5, CD40 on HT1080-CD40 cells (Homo sapiens, UniProt P25942); assay: cellular competition binding with a GpL-TNFL fusion protein; HT1080 transfectants (2 x 10^4 per well) incubated with an excess of the GpL-free antibody (10 µg/ml) or VHH Fc fusion protein for 30 minutes, then GpL-TNFL added at a concentration close to its KD (typically 1 - 100 ng/ml); remaining specific binding against TNFR negative HT1080 cells; conditions: partners not purified
# T5 construct: CD40 expressed on HT1080-CD40 transfectants; also called CD40-expressing cells
# T5 sequence (P25942 21-277): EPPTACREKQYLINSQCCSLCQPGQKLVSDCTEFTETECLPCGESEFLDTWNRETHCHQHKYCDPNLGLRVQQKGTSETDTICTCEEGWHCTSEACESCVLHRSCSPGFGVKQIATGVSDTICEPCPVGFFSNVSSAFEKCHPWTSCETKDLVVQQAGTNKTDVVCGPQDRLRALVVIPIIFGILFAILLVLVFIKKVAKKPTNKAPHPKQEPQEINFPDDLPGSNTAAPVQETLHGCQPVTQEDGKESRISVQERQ
# TNFR2(ed)-CRD1-2-GpL = molecular target: T1, TNFR2(ed)-CRD1-2-GpL; assay: cell-free binding of GpL-tagged receptor fragments to plate-captured antibody; plates coated with 1 µg/ml protein G, antibody (1 µg/ml) captured 1 h at 37°C, 500 ng/ml TNFR2-GpL fusion proteins added in medium for 2 h at 37°C, well-associated luminescence; irrelevant IgG1 wells subtracted; conditions: partners not purified
# TNFR2(ed)-CRD1-GpL = molecular target: T2, TNFR2(ed)-CRD1-GpL; assay: as above; conditions: partners not purified
# TNFR2(ed)-CRD1-4-GpL = molecular target: T3, TNFR2(ed)-CRD1-4-GpL; assay: as above; conditions: partners not purified
# TNFR2(ed)-CRD1-3-GpL = molecular target: T4, TNFR2(ed)-CRD1-3-GpL; assay: as above; conditions: partners not purified
# CD40(ed)-Fc = molecular target: T6, CD40(ed)-Fc (Homo sapiens, UniProt P25942); assay: cell-free equilibrium binding of a GpL (luciferase) fusion protein on coated plates; black high binding 96-well plates coated with 1 µg/ml CD40(ed)-Fc in 0,1 M carbonate buffer at 4°C overnight, blocked with 10% FCS in PBS, two-fold dilution series of the GpL antibody fusion protein, 37°C, 1 h; non-specific binding from irrTNFR(ed)-Fc wells, from wells blocked with an excess of the GpL-free antibody, or from an …; conditions: one partner purified
# T6 construct: extracellular domain of CD40; coated directly on the plate; the legend's footnote says that purified TNFR(ed)-Fc can be coated directly, so it was probably purified; also called Fc fusion protein of the extracellular CD40 domain; source: HEK293T, transient transfection (said of the recombinant proteins in general)
# T6 sequence (P25942 21-193): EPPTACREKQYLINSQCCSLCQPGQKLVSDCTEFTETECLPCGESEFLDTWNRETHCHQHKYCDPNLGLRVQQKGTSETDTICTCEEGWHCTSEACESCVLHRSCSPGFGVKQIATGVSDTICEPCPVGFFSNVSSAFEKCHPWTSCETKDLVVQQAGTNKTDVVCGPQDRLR
# [2] = molecular target: T5, CD40 on HT1080-CD40 cells; assay: cellular equilibrium binding of a GpL (luciferase) fusion protein; adherent HT1080-CD40 cells in 96-well plates (2 x 10^4 cells/well), two-fold dilution series of the GpL antibody fusion protein, 37°C, 30 min to 1 h, five washes with icecold PBS, cell-associated luminescence; non-specific binding from HT1080 cells, from cells blocked with an excess of the GpL-free antibody, or from an irrelevant IgG1-LC:GpL; one …; conditions: partners not purified
binder,measurement,setting,value
"Anti-CD40(ADC)-IgG1 (antibody, V domains shown, heavy chain of recombinant anti-CD40 IgG1 clone ADC1013; light chain of recombinant anti-CD40 IgG1 clone ADC1013; IgG1; also called ADC1013; variant of the anti-CD40 antibody ADC-1013; source: HEK293T, transient transfection (PEI)) VH: EVQLLESGGGLVQPGGSLRLSCAASGFTFSTYGMHWVRQAPGKGLEWLSYISGGSSYIFYADSVRGRFTISRDNSENALYLQMNSLRAEDTAVYYCARILRGGSGMDLWGQGTLVTVSS VL: QSVLTQPPSASGTPGQRVTISCTGSSSNIGAGYNVYWYQQLPGTAPKLLIYGNINRPSGVPDRFSGSKSGTSASLAISGLRSEDEADYYCAAWDKSISGLVFGGGTKLTVL",binding result,[1],binds
"anti-TNFR2(68/69)-IgG1(N297A) (antibody, V domains shown, heavy chain of recombinant anti-TNFR2 IgG1(N297A) clone SBT-002 (68/69); light chain of recombinant anti-TNFR2 clone SBT-002 (68/69); IgG1 with N297A in the Fc; also called SBT-002; anti-TNFR2 antibody 68/69; source: HEK293T, transient transfection (PEI)) VH: QVTLKESGPALVKPTQTLTLTCTFSGFSLSTSGMGVGWIRQPPGKALEWLAHIWWDDDKFYNPSLKSRLTISKDTSKNQVVLTMTNMDPVDTATYYCARLTGTRYFDYWGQGTTVTVSS VL: DVQMTQSPSSLSASVGDRVTITCKASQDINKFIAWYQQKPGKAPKLLIHYTSTLQPGIPSRFSGSGSGRDYTFTISSLQPEDIATYYCLQYGNLWTFGGGTKVEIK",binding result,TNFR2(ed)-CRD1-2-GpL,binds
same,binding result,TNFR2(ed)-CRD1-GpL,no binding (tested: 500 ng/ml)
same,binding result,TNFR2(ed)-CRD1-4-GpL,binds
same,binding result,TNFR2(ed)-CRD1-3-GpL,binds
"anti-CD40(G28.5)-IgG1-LC : GpL (antibody, V domains shown, heavy chain of recombinant anti-CD40 IgG1 clone G28.5; light chain of recombinant anti-CD40 IgG1 clone G28.5; IgG1; GpL domain on the C-terminus of the light chain; also called GpL-Ab-Fp of the CD40-specific antibody G28.5; source: HEK293T, transient transfection (PEI), cell culture supernatant; not shown: GpL (Gaussia princeps luciferase), C-terminal, kept) VH: DIQLQQSGPGLVKPSQSLSLTCSVTGYSITTNYNWNWIRQFPGNKLEWMGYIRYDGTSEYTPSLKNRVSITRDTSMNQFFLRLTSVTPEDTATYYCARLDYWGQGTLVTVSS VL: DIVMTQNPLSLPVSLGDEASISCRSSQSLENSNGNTFLNWFFQKPGQSPQLLIYRVSNRFSGVPDRFSGSGSGTDFTLKISRVEAEDLGVYFCLQVTHVPYTFGGGTTLEIK",binding result,CD40(ed)-Fc,binds
same,binding result,[2],binds
"anti-CD40(G28.5)-IgG1 (antibody, V domains shown, as the heavy chain of m1; as the light chain of m1, without the GpL domain; IgG1; also called GpL-free version of G28.5; source: HEK293T, transient transfection (PEI)) VH: DIQLQQSGPGLVKPSQSLSLTCSVTGYSITTNYNWNWIRQFPGNKLEWMGYIRYDGTSEYTPSLKNRVSITRDTSMNQFFLRLTSVTPEDTATYYCARLDYWGQGTLVTVSS VL: DIVMTQNPLSLPVSLGDEASISCRSSQSLENSNGNTFLNWFFQKPGQSPQLLIYRVSNRFSGVPDRFSGSGSGTDFTLKISRVEAEDLGVYFCLQVTHVPYTFGGGTTLEIK",binding result,CD40(ed)-Fc,binds
same,binding result,[2],binds
